In patent US6116237A, “Methods of dry powder inhalation” (priority 1997, dated 2000):

Test: Systemic delivery of calcitonin as model peptide following dosing with the Spiros system, compared to subcutaneous injection
Assay type: in vivo
Conditions: calcitonin/lactose blend, estimated
From the text: 5. Using calcitonin as a model peptide for systemic delivery, the bioactivity following dosing with the Spiros system has been estimated to be greater than 20% compared to a subcutaneous injection.

calcitonin
bioactivity following dosing with the Spiros system compared to a subcutaneous injection (systemic availability): greater than 20%
